For one data set, the system named is STAT5 Y647. The experiment in a line: Epo signaling: STAT5 phosphorylation by flow cytometry in transduced T cells. It counts as cell-based, human. The settings on record: for Epo signaling (pSTAT5) after JAK inhibitor: concentration that abrogated IL-2 signal. As for the experimental part:
To detect Epo signaling, cells were incubated in cytokine-free media for 2 hours before stimulated with Epo (0.01-10 IU/mL) at 37° C. for 15 minutes to 24 hours. In some experiments, cells were treated with 0.1-10 μM of ruxolitinib (Selleckchem) or 0.5-5 nM tofacitinib (Santa Cruz Biotechnology, Santa Cruz, CA) for 1 hour prior to Epo stimulation. […] In some experiments, the effects of human Epo were compared to those of murine Epo (Biolegend, San Diego, CA).

Another data set concerns CD19+ Nalm6 ALL cells. Description: Xenograft: Nalm6-luciferase cells followed 2 days later by EpoRm-CAR T cells, with or without Epo. The format is in vivo, NSG mice. The following applies: 100 IU Epo i.p. 3 times a week for 2 weeks. Here is the method:
In another model to test anti-leukemic activity of T cells, Nalm6 cells transduced with luciferase were injected i.v. (5×10^5 cells per mouse), followed 2 days later by T cells expressing EpoRm-CAR (2×10^7 cells per mouse, i.v.), while control mice received no T cells; some mice received Epo (100 IU) 3 times per week i.p. Tumor cell load was determined with the Xenogen IVIS-200 System (Perkin Elmer, Waltham, MA) after injecting aqueous D-luciferin potassium salt (150 μg/g body weight; Perkin Elmer) i.p. Luminescence was analyzed with Living Image 3.0 software. Mice were euthanized when the luminescence reached 1×10^10 photons per second, or earlier if there were physical signs warranting euthanasia.

A further data set deals with Jurkat cells. The experiment in a line: Jurkat cell growth curves. It counts as cell-based, human.
For data set [1], the system named is T lymphocytes. Description: Cell cycle analysis (EdU DNA synthesis) after Epo stimulation. It counts as cell-based, human. The following applies: exposure to Epo for 24 hours. As for the experimental part: To determine the effect of Epo on cell cycle, cells were cultured in cytokine-free media for 3 days followed by stimulation with 10 IU/mL of Epo for 1 day. DNA synthesis was measured by Click-iT EdU AF647 Flow Cytometry Assay Kit (Thermo Fisher Scientific), and DNA content was measured with FxCycle Violet Stain (Thermo Fisher Scientific).

Data set [2] relates to T lymphocytes. Description: T cell survival/recovery in culture with or without Epo and IL-2. The format is cell-based, human. Here is the method: To assess cell survival, T cells were cultured in absence of exogenous cytokines, with or without Epo (4-10 IU/mL) in a flat bottom 96-well or 24-well plate (Cellstar). For cell proliferation, T cells were co-cultured with target cells (OP-1 cells) at 1:1 effector-to-target (E:T) ratio in a flat bottom 96-well plate; Epo (10 IU/mL) was added every two days. Target cells, irradiated (100 Gy) or treated with Streck cell preservative (Streck Laboratories, Omaha, NE) to inhibit growth, were added at the beginning of the cultures, and every 7 days thereafter. In some experiments, low dose (10 IU/mL) or high dose (100 IU/mL) IL-2 was added to the culture as well. The number of GFP+ T cells was measured by flow cytometry.

A further data set concerns Epo. Description: Binding of biotinylated Epo to transduced Jurkat cells. The text has this:
Biotinylated Epo was visualized with streptavidin-PE (Jackson ImmunoResearch).

Setting [3] is: EpoRm-CAR T cells, Epo 10 IU/mL.

The source of these data is patent US12486514B2, “Method to specifically stimulate survival and expansion of genetically-modified immune cells” (National University of Singapore, priority 2018, dated 2025).

Turning to `N#CC[C@H](C1CCCC1)n1cc(-c2ncnc3[nH]ccc23)cn1` [ruxolitinib, reference compound], the “Epo signaling (pSTAT5) after JAK inhibitor” value in the data set on STAT5 Y647 (setting [3]) is reported as “no effect”.

With `C[C@@H]1CCN(C(=O)CC#N)C[C@@H]1N(C)c1ncnc2[nH]ccc12` [tofacitinib, reference compound], in the data set with STAT5 Y647 (setting [3]), the “Epo signaling (pSTAT5) after JAK inhibitor” value is listed as “no effect”. Moreover, the “STAT5 Y647 phosphorylation caused by IL-2 after JAK inhibitor” value with STAT5 Y647 (EpoRm-CAR T cells, IL-2 100 IU/mL) is recorded as “completely abrogated”.

As for “Epo: recombinant human Epo (Thermo Fisher Scientific), glycoprotein cytokine”, the pSTAT5 levels induced entry in the data set on STAT5 Y647 (EpoRm-CAR T cells, 1 IU/mL of Epo vs 50 IU/mL IL-2) is “significantly higher”. Further, the “effect of Epo injection on anti-leukemic activity” value in the data set with CD19+ Nalm6 ALL cells is “did not affect the anti-leukemic activity”.

B1: EpoRm: truncated mutant Epo receptor, codon 439 TGG (Trp) changed to TAG (stop), SEQ ID NO: 6, expressed in T cells (protein)
chain: MDHLGASLWPQVGSLCLLLAGAAWAPPPNLPDPKFESKAALLAARGPEELLCFTERLEDLVCFWEEAASAGVGPGNYSFSYQLEDEPWKLCRLHQAPTARGAVRFWCSLPTADTSSFVPLELRVTAASGAPRYHRVIHINEVVLLDAPVGLVARLADESGHVVLRWLPPPETPMTSHIRYEVDVSAGNGAGSVQRVEILEGRTECVLSNLRGRTRYTFAVRARMAEPSFGGFWSAWSEPVSLLTPSDLDPLILTLSLILVVILVLLTVLALLSHRRALKQKIWPGIPSPESEFEGLFTTHKGNFQLWLYQNDGCLWWSPCTPFTEDPPASLEVLSERCWGTMQAVEPGTDDEGPLLEPVGSEHAQDTYLVLDKWLLPRNPPSEDLPGPGGSVDIVAMDEGSEASSCSSALASKPSPEGASAASFEYTILDPSSQLLRP
As for B1, in the data set on STAT5 Y647 (Epo 10 IU/mL, 15 minutes), the “functionality of EpoRm (pSTAT5) when expressed with CAR” value is given as “maintained”. For the same molecule, in the data set on STAT5 Y647 (Epo 10 IU/mL, time course), the “durability of STAT5 phosphorylation” value is on record as “more durable”. Besides, in the data set on Jurkat cells, the “long-term cell growth of Jurkat cells” value was “does not adversely affect”. Further, in the data set on T lymphocytes [1], the “DNA synthesis elicited by Epo” value is “stimulation was higher”. For the same molecule, the “recovery of T cells” value with T lymphocytes [2] (7 days, Epo 10 IU/mL added to IL-2 100 IU/mL vs IL-2, 4 donors) was “significantly higher”. For the same molecule, in the data set with T lymphocytes [2] (14 days, IL-2 100 IU/mL with Epo 10 IU/mL), the “expansion of T cells” value is given as “performed better than EpoR cells”. In addition, the “cell numbers in culture” value with T lymphocytes [2] (Epo added, absence of IL-2) is listed as “yielding higher cell numbers”.

B2: EpoR: wild-type human erythropoietin receptor (SEQ ID NO: 2) expressed in T cells by MSCV retroviral transduction (protein)
chain: MDHLGASLWPQVGSLCLLLAGAAWAPPPNLPDPKFESKAALLAARGPEELLCFTERLEDLVCFWEEAASAGVGPGNYSFSYQLEDEPWKLCRLHQAPTARGAVRFWCSLPTADTSSFVPLELRVTAASGAPRYHRVIHINEVVLLDAPVGLVARLADESGHVVLRWLPPPETPMTSHIRYEVDVSAGNGAGSVQRVEILEGRTECVLSNLRGRTRYTFAVRARMAEPSFGGFWSAWSEPVSLLTPSDLDPLILTLSLILVVILVLLTVLALLSHRRALKQKIWPGIPSPESEFEGLFTTHKGNFQLWLYQNDGCLWWSPCTPFTEDPPASLEVLSERCWGTMQAVEPGTDDEGPLLEPVGSEHAQDTYLVLDKWLLPRNPPSEDLPGPGGSVDIVAMDEGSEASSCSSALASKPSPEGASAASFEYTILDPSSQLLRPWTLCPELPPTPPHLKYLYLVVSDSGISTDYSSGDSQGAQGGLSDGPYSNPYENSLIPAAEPLPPSYVACS
Turning to B2, in the data set with Jurkat cells, the “long-term cell growth of Jurkat cells” value was “does not adversely affect”. Besides, the Epo binding entry in the data set with Epo was “could bind Epo”. Further, the survival in culture entry with T lymphocytes [2] (Epo 4 IU/mL, absence of exogenous IL-2) was “supported their survival in culture”.
